According to paper PMC10397247:
Each block holds one binder with its values, some of them ahead of it.

Legend:
4H3709-AA = target: T1, 4H3709-AA; test: two-hybrid library CCmax; details: mean of both orientations;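 note: natural log of median RNA to DNA barcode read ratio; higher means stronger binding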
T1 chain: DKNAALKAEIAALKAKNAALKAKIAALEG

4H391-AA = target: T2, 4H391-AA; test: two-hybrid library CCmax; details: mean of both orientations;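 note: natural log of median RNA to DNA barcode read ratio; higher means stronger binding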
T2 chain: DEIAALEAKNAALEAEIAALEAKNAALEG

4H497-AA = target: T3, 4H497-AA; test: two-hybrid library CCmax; details: mean of both orientations;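 note: natural log of median RNA to DNA barcode read ratio; higher means stronger binding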
T3 chain: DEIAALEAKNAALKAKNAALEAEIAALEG

4H3939-AA = target: T4, 4H3939-AA; test: two-hybrid library CCmax; details: mean of both orientations;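 note: natural log of median RNA to DNA barcode read ratio; higher means stronger binding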
T4 chain: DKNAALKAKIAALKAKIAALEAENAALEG

4H3920-AA = target: T5, 4H3920-AA; test: two-hybrid library CCmax; details: mean of both orientations;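 note: natural log of median RNA to DNA barcode read ratio; higher means stronger binding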
T5 chain: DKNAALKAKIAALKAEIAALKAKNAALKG

4H478-AA = target: T6, 4H478-AA; test: two-hybrid library CCmax; details: mean of both orientations;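 note: natural log of median RNA to DNA barcode read ratio; higher means stronger binding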
T6 chain: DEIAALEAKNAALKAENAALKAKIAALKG

4H428-AA = target: T7, 4H428-AA; test: two-hybrid library CCmax; details: mean of both orientations
T7 chain: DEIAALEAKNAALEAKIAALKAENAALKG

4H656-AA = target: T8, 4H656-AA; test: two-hybrid library CCmax; details: mean of both orientations
T8 chain: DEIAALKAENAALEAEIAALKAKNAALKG

4H3666-AA = target: T9, 4H3666-AA; test: two-hybrid library CCmax; details: mean of both orientations
T9 chain: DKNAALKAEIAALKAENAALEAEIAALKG

4H675-AA = target: T10, 4H675-AA; test: two-hybrid library CCmax
T10 chain: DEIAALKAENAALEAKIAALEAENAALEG

4H971-AA = target: T11, 4H971-AA; test: two-hybrid library CCmax; details: mean of both orientations
T11 chain: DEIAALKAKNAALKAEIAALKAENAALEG

4H3628-AA = target: T12, 4H3628-AA; test: two-hybrid library CCmax; details: mean of both orientations
T12 chain: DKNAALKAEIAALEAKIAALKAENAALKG

4H3591-AA = target: T13, 4H3591-AA; test: two-hybrid library CCmax
T13 chain: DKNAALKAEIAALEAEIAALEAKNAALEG

4H754-bH = target: T14, 4H754-bH; test: two-hybrid library CCNG1
T14 chain: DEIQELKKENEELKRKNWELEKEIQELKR

4H953-bH = target: T15, 4H953-bH; test: two-hybrid library CCNG1
T15 chain: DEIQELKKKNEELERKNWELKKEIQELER

4H918-bH = target: T16, 4H918-bH; test: two-hybrid library CCNG1
T16 chain: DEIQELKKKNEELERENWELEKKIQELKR

4H72-bH = target: T17, 4H72-bH; test: two-hybrid library CCNG1
T17 chain: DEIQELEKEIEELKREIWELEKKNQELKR

4H883-bN = target: T18, 4H883-bN; test: two-hybrid library CCNG1
T18 chain: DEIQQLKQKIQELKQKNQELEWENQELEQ

4H967-bH = target: T19, 4H967-bH; test: two-hybrid library CCNG1
T19 chain: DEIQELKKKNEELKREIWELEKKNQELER

4H717-bH = target: T20, 4H717-bH; test: two-hybrid library CCNG1
T20 chain: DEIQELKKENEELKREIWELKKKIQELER

4H908-bH = target: T21, 4H908-bH; test: two-hybrid library CCNG1
T21 chain: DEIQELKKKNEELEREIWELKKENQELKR

4H883-bH = target: T22, 4H883-bH; test: two-hybrid library CCNG1
T22 chain: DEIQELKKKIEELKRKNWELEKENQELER

4H797-bH = target: T23, 4H797-bH; test: two-hybrid library CCNG1
T23 chain: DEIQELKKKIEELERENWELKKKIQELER

4H949-bH = target: T24, 4H949-bH; test: two-hybrid library CCNG1
T24 chain: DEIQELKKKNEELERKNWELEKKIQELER

4H384-AA = target: T25, 4H384-AA; test: two-hybrid library CCmax; details: mean of both orientations
T25 chain: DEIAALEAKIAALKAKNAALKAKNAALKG

4H982-AA = target: T26, 4H982-AA; test: two-hybrid library CCmax; details: mean of both orientations
T26 chain: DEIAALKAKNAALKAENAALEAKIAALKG

4H3697-AA = target: T27, 4H3697-AA; test: two-hybrid library CCmax; details: mean of both orientations
T27 chain: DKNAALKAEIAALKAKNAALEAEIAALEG

4H3413-AA = target: T28, 4H3413-AA; test: two-hybrid library CCmax; details: mean of both orientations
T28 chain: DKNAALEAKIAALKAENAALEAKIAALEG

4H3606-AA = target: T29, 4H3606-AA; test: two-hybrid library CCmax; details: mean of both orientations
T29 chain: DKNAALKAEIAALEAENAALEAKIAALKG

4H3588-AA = target: T30, 4H3588-AA; test: two-hybrid library CCmax; details: mean of both orientations
T30 chain: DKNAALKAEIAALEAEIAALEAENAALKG

4H697-AA = target: T31, 4H697-AA; test: two-hybrid library CCmax; details: mean of both orientations
T31 chain: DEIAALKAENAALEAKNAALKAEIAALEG

4H3631-AA = target: T32, 4H3631-AA; test: two-hybrid library CCmax; details: mean of both orientations
T32 chain: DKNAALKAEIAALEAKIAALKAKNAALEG

4H3718-AA = target: T33, 4H3718-AA; test: two-hybrid library CCmax; details: mean of both orientations
T33 chain: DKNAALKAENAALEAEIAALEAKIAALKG

4H340-AA = target: T34, 4H340-AA; test: two-hybrid library CCmax
T34 chain: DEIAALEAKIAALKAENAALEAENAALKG

4H3865-AA = target: T35, 4H3865-AA; test: two-hybrid library CCmax; details: mean of both orientations
T35 chain: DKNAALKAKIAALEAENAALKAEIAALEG

4H568-bH = target: T36, 4H568-bH; test: two-hybrid library CCNG1
T36 chain: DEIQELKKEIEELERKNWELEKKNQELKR

4H607-bH = target: T37, 4H607-bH; test: two-hybrid library CCNG1
T37 chain: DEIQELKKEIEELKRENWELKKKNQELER

4H687-bH = target: T38, 4H687-bH; test: two-hybrid library CCNG1
T38 chain: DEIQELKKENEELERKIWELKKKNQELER

Binder: DEIQELKKENEELKREIWELKKKIQELER [4H717-bH]
interaction score (4H754-bH): 0.538
interaction score (4H953-bH): -0.135
interaction score (4H918-bH): 0.0812
interaction score (4H72-bH): -0.629
interaction score (4H883-bN): -0.103
interaction score (4H967-bH): -0.767
interaction score (4H717-bH): 0.358
interaction score (4H908-bH): -1.59
interaction score (4H883-bH): -0.589
interaction score (4H797-bH): -1.17

Binder: DEIAALEAKIAALKAENAALEAENAALKG [4H340-AA]
interaction score (4H384-AA): 1.51
interaction score (4H982-AA): -1.24
interaction score (4H3697-AA): -1.98
interaction score (4H3413-AA): -1.52
interaction score (4H3606-AA): -0.46
interaction score (4H3588-AA): -0.126
interaction score (4H697-AA): -1.32
interaction score (4H3631-AA): -0.0653
interaction score (4H3718-AA): -0.983
interaction score (4H340-AA): 0.807
interaction score (4H3865-AA): -1.26

More lines, now with the values ahead:

interaction score (4H3709-AA): -0.696
interaction score (4H391-AA): -2.02
interaction score (4H497-AA): -1.86
interaction score (4H3939-AA): 1.03
interaction score (4H3920-AA): 0.759
interaction score (4H478-AA): -1.53
interaction score (4H428-AA): -1.03
interaction score (4H656-AA): -0.984
interaction score (4H3666-AA): -1.67
interaction score (4H675-AA): -1.63
interaction score (4H971-AA): -1.24
interaction score (4H3628-AA): -0.555
interaction score (4H3591-AA): -1.51
Binder: DKNAALKAEIAALEAEIAALEAKNAALEG [4H3591-AA]

interaction score (4H949-bH): 0.634
Binder: DEIQELKKKNEELERKNWELEKKIQELER [4H949-bH]

interaction score (4H754-bH): 0.644
interaction score (4H953-bH): -1.24
interaction score (4H918-bH): -0.673
interaction score (4H72-bH): -1.52
interaction score (4H568-bH): -1.25
interaction score (4H967-bH): 0.179
interaction score (4H717-bH): 0.643
interaction score (4H908-bH): 0.115
interaction score (4H607-bH): 0.0933
interaction score (4H883-bH): 1
interaction score (4H687-bH): -0.423
interaction score (4H797-bH): -0.219
Binder: DEIQELKKEIEELERKNWELEKKNQELKR [4H568-bH]
